Assay results taken from article PMC10998612.

Legend:
[1] = target: fluorescein-labeled peptide corresponding to repeat 3 (PPP1R15A^420-466), wild type (human) (UniProt O75807); experiment: fluorescence polarisation; 5 µL 100 nM fluorescein-labeled peptide probe mixed with 5 µL of increasing concentrations of eIF2 trimer or eIF2α-NTD; 20 mM Tris pH 7.4, 0.1 M NaCl, 1 mM TCEP, 0.01% Triton X-100; one-site binding fit; three experiments
[2] = target: eIF2 trimer, endogenous (detected by its α subunit), P05198;P20042;P41091; experiment: GFP immunoprecipitation (co-IP) and immunoblot, quantified; conditions: HEK293T cells; 20% (v/v) of immunoprecipitation fractions analyzed; parent: est. 0.14; read off a plot
[3] = target: extended PPP1R15A^325-636, wild type (bacterially expressed) (human) (UniProt O75807)
Sequence of extended PPP1R15A^325-636, wild type (bacterially expressed) (human) (O75807 325-636): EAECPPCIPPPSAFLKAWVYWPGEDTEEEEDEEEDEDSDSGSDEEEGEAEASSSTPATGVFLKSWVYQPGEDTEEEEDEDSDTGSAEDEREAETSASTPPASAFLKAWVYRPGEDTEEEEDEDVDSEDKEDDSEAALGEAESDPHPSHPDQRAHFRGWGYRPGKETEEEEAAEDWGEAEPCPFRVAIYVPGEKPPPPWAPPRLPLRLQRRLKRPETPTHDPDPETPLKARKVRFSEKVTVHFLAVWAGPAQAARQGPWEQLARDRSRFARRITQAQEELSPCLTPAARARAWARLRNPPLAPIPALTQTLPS

Sequence of eIF2^P trimer (phosphorylated eIF2) (P05198 whole entry): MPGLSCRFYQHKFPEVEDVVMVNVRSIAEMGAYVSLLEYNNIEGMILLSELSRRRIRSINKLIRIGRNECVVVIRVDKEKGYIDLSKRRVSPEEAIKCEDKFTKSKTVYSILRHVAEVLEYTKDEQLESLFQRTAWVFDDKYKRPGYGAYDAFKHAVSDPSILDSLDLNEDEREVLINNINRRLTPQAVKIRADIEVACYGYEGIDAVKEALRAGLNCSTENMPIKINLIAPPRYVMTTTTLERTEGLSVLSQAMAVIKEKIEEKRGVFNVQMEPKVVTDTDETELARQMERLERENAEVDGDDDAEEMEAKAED
Sequence of eIF2^P trimer (phosphorylated eIF2) (P20042 whole entry): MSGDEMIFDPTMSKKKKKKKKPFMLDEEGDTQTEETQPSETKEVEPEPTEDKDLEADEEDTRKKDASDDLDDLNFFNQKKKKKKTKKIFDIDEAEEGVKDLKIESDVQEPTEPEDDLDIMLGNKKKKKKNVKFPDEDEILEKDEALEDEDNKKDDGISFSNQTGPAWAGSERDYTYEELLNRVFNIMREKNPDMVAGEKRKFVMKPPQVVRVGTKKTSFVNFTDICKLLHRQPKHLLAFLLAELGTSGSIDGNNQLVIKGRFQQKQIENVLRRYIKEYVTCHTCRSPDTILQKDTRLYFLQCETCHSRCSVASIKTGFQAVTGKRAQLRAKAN
Sequence of eIF2^P trimer (phosphorylated eIF2) (P41091 whole entry): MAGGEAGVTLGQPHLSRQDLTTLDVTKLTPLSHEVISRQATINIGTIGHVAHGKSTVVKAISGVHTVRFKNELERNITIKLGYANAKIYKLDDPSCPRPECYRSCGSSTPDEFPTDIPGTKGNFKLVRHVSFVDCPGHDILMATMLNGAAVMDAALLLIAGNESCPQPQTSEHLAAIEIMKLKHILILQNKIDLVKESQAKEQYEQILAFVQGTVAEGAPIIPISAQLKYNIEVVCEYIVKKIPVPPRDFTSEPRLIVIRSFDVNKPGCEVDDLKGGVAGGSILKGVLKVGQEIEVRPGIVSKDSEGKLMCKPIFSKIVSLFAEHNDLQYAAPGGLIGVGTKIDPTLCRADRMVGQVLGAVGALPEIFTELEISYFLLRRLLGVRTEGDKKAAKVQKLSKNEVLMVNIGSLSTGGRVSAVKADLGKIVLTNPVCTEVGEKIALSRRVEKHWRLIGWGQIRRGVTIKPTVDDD
Sequence of eIF2 trimer (recombinant, not phosphorylated) (P05198 whole entry): as the sequence (P05198 whole entry) above
Sequence of eIF2 trimer (recombinant, not phosphorylated) (P20042 whole entry): as the sequence (P20042 whole entry) above
Sequence of eIF2 trimer (recombinant, not phosphorylated) (P41091 whole entry): as the sequence (P41091 whole entry) above
Sequence of fluorescein-labeled peptide corresponding to repeat 3 (PPP1R15A^420-466), wild type (human) (O75807 420-466): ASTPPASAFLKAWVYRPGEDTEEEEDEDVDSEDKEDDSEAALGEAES
Sequence of full-length human PPP1R15A-GFP fusion protein, wild type (O75807 whole entry, stated change not applied, the tested form may be a part): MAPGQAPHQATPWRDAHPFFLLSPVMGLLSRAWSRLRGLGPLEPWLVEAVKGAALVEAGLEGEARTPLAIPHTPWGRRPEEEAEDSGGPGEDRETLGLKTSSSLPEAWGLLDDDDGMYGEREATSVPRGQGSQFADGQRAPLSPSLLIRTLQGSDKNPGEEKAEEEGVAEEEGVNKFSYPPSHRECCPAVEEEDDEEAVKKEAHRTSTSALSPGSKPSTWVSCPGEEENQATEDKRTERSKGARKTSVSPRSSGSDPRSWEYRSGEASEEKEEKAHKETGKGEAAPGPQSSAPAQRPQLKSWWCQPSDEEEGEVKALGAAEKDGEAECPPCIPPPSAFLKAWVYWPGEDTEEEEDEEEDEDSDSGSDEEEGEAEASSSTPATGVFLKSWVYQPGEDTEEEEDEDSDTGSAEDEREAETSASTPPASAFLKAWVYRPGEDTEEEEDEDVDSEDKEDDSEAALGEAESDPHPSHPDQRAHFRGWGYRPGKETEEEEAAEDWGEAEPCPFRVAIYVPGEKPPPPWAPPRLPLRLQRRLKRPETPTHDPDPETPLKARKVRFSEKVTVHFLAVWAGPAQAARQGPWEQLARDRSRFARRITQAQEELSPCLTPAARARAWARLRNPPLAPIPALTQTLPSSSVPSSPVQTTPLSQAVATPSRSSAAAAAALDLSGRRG

Substance: eIF2 trimer (recombinant, not phosphorylated) (from UniProt P05198 1-315; P20042 1-333; P41091 1-472) (complex)
- K (1/2max) [1]: 220 nM

Substance: full-length human PPP1R15A-GFP fusion protein, wild type (from UniProt O75807) F338A; W342A; F386A; W389A; F428A; W432A; F479A; W482A
- other: eIF2α/PP1 signal ratio [2]: 0.0084

Substance: eIF2^P trimer (phosphorylated eIF2) (from UniProt P05198 1-315; P20042 1-333; P41091 1-472) (complex)
- dephosphorylation of the eIF2^P trimer in vitro (PhosTag SDS-PAGE, kcat/Km) by the extended PPP1R15A^325-636-PP1-G-actin holophosphatase against the core PPP1R15A^533-624-PP1-G-actin holophosphatase (fold (kcat/Km)) [3]: 10
